Starred links: 1 amine or outer side, 2 acyl side, 3 side chain; linkers in the order of their positions; H or OH if unused. Non-standard residues stand in square brackets, D forms with d. Groups on a side chain read outwards from the residue. Primed or numbered codes have the meaning given here. No end group written: not given here. *: point of attachment. γGlu = O=C(O)[C@H](CCC(=O)[*:2])N[*:1]; Stearoyl = CCCCCCCCCCCCCCCCCC(=O)*; Palmitoyl = CCCCCCCCCCCCCCCC(=O)*; αMeF = C[C@](N)(Cc1ccccc1)C(=O)O; αMeK = C[C@](N)(CCCCN)C(=O)O; αMeS = C[C@](N)(CO)C(=O)O; PEG2′ = not defined here; Aib = CC(C)(N)C(=O)O
T1: GLP-1R (INS1e assay) (UniProt P32301 22-463, limits assumed)
T1 sequence (looked up): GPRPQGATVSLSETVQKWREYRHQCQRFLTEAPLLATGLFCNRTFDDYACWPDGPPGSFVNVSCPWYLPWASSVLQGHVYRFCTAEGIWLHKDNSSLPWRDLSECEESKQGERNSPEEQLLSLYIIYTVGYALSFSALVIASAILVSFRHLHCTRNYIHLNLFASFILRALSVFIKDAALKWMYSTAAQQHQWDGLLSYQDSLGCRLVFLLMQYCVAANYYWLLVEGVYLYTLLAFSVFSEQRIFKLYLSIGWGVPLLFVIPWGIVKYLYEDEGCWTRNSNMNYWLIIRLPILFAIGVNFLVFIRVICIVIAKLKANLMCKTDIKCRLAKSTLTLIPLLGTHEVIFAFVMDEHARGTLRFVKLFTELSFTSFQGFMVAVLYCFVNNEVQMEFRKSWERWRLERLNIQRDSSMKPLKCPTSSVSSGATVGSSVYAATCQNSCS

B1: SEQ ID NO 91 (peptide)
peptide: H[Aib]EGS[αMeF]TSK([γGlu-Palmitoyl])V[αMeS]S[αMeF]LEGEAA[αMeK]E[αMeF]IA[αMeF]VV[αMeK]GG-NH2
modifications: N-terminus assumed
SMILES: CCCCCCCCCCCCCCCC(=O)N[C@@H](CCC(=O)NCCCC[C@H](NC(=O)[C@H](CO)NC(=O)[C@@H](NC(=O)[C@](C)(Cc1ccccc1)NC(=O)[C@H](CO)NC(=O)CNC(=O)[C@H](CCC(=O)O)NC(=O)C(C)(C)NC(=O)[C@@H](N)Cc1c[nH]cn1)[C@@H](C)O)C(=O)N[C@H](C(=O)N[C@@](C)(CO)C(=O)N[C@@H](CO)C(=O)N[C@@](C)(Cc1ccccc1)C(=O)N[C@@H](CC(C)C)C(=O)N[C@@H](CCC(=O)O)C(=O)NCC(=O)N[C@@H](CCC(=O)O)C(=O)N[C@@H](C)C(=O)N[C@@H](C)C(=O)N[C@@](C)(CCCCN)C(=O)N[C@@H](CCC(=O)O)C(=O)N[C@@](C)(Cc1ccccc1)C(=O)N[C@H](C(=O)N[C@@H](C)C(=O)N[C@@](C)(Cc1ccccc1)C(=O)N[C@H](C(=O)N[C@H](C(=O)N[C@@](C)(CCCCN)C(=O)NCC(=O)NCC(N)=O)C(C)C)C(C)C)[C@@H](C)CC)C(C)C)C(=O)O
B2: SEQ ID NO 87 (peptide)
peptide: H[Aib]EGS[αMeF]TSDV[αMeS]SK([γGlu-Palmitoyl])LEGEAA[αMeK]E[αMeF]IA[αMeF]VV[αMeK]GG-NH2
modifications: N-terminus assumed
SMILES: CCCCCCCCCCCCCCCC(=O)N[C@@H](CCC(=O)NCCCC[C@H](NC(=O)[C@H](CO)NC(=O)[C@](C)(CO)NC(=O)[C@@H](NC(=O)[C@H](CC(=O)O)NC(=O)[C@H](CO)NC(=O)[C@@H](NC(=O)[C@](C)(Cc1ccccc1)NC(=O)[C@H](CO)NC(=O)CNC(=O)[C@H](CCC(=O)O)NC(=O)C(C)(C)NC(=O)[C@@H](N)Cc1c[nH]cn1)[C@@H](C)O)C(C)C)C(=O)N[C@@H](CC(C)C)C(=O)N[C@@H](CCC(=O)O)C(=O)NCC(=O)N[C@@H](CCC(=O)O)C(=O)N[C@@H](C)C(=O)N[C@@H](C)C(=O)N[C@@](C)(CCCCN)C(=O)N[C@@H](CCC(=O)O)C(=O)N[C@@](C)(Cc1ccccc1)C(=O)N[C@H](C(=O)N[C@@H](C)C(=O)N[C@@](C)(Cc1ccccc1)C(=O)N[C@H](C(=O)N[C@H](C(=O)N[C@@](C)(CCCCN)C(=O)NCC(=O)NCC(N)=O)C(C)C)C(C)C)[C@@H](C)CC)C(=O)O
B3: SEQ ID NO 88 (peptide)
peptide: HXEGSFTSDVSKFLEGEAAKEFIAFVVKGG
modifications: Aib2; α-MeF6; α-MeS11; K12(ε-γE-Palmitoyl); α-MeF13; α-MeK20; α-MeF22; α-MeF25; α-MeK28; C-terminal amide
B4: SEQ ID NO 90 (peptide)
peptide: H[Aib]EGS[αMeF]TSDK([γGlu-Palmitoyl])[αMeS]S[αMeF]LEGEAA[αMeK]E[αMeF]IA[αMeF]VV[αMeK]GG-NH2
modifications: N-terminus assumed
SMILES: CCCCCCCCCCCCCCCC(=O)N[C@@H](CCC(=O)NCCCC[C@H](NC(=O)[C@H](CC(=O)O)NC(=O)[C@H](CO)NC(=O)[C@@H](NC(=O)[C@](C)(Cc1ccccc1)NC(=O)[C@H](CO)NC(=O)CNC(=O)[C@H](CCC(=O)O)NC(=O)C(C)(C)NC(=O)[C@@H](N)Cc1c[nH]cn1)[C@@H](C)O)C(=O)N[C@@](C)(CO)C(=O)N[C@@H](CO)C(=O)N[C@@](C)(Cc1ccccc1)C(=O)N[C@@H](CC(C)C)C(=O)N[C@@H](CCC(=O)O)C(=O)NCC(=O)N[C@@H](CCC(=O)O)C(=O)N[C@@H](C)C(=O)N[C@@H](C)C(=O)N[C@@](C)(CCCCN)C(=O)N[C@@H](CCC(=O)O)C(=O)N[C@@](C)(Cc1ccccc1)C(=O)N[C@H](C(=O)N[C@@H](C)C(=O)N[C@@](C)(Cc1ccccc1)C(=O)N[C@H](C(=O)N[C@H](C(=O)N[C@@](C)(CCCCN)C(=O)NCC(=O)NCC(N)=O)C(C)C)C(C)C)[C@@H](C)CC)C(=O)O

Target: T1, GLP-1R (INS1e assay)
Experiment: cell-based or functional assay

| Binder | INS1e assay EC50 GLP-1 R n1 | INS1e assay EC50 GLP-1 R n2 | INS1e assay EC50 Mean pM GLP-1R |
| --- | --- | --- | --- |
| H[Aib]EGS[αMeF]TSDV[αMeS]S[αMeF]LEGEAA[αMeK]E[αMeF]IA[αMeF]VK([PEG2′-PEG2′-γGlu-Stearoyl])[αMeK]GG-NH2 [SEQ ID NO 102] | 4.22 nM | 2.89 nM | 3560 pM |
| B1 | 1.93 nM | 3.5 nM | 2720 pM |
| H[Aib]EGS[αMeF]TSDV[αMeS]S[αMeF]LEGEAA[αMeK]E[αMeF]IK([PEG2′-PEG2′-γGlu-Stearoyl])[αMeF]VV[αMeK]GG-NH2 [SEQ ID NO 105] | 0.22 nM | 1.72 nM | 970 pM |
| H[Aib]EGS[αMeF]TSDV[αMeS]S[αMeF]LEK([PEG2′-PEG2′-γGlu-Stearoyl])EAA[αMeK]E[αMeF]IA[αMeF]VV[αMeK]GG-NH2 [SEQ ID NO 113] | 0.823 nM | 1.26 nM | 1040 pM |
| H[Aib]EGS[αMeF]TSDV[αMeS]S[αMeF]LEGEAA[αMeK]E[αMeF]IA[αMeF]K([PEG2′-PEG2′-γGlu-Stearoyl])V[αMeK]GG-NH2 [SEQ ID NO 103] | 0.428 nM | 0.59 nM | 509 pM |
| B2 | 0.0436 nM | 0.0622 nM | 53 pM |
| H[Aib]EGS[αMeF]TSDV[αMeS]S[αMeF]LEGEAAK([PEG2′-PEG2′-γGlu-Palmitoyl])E[αMeF]IA[αMeF]VV[αMeK]GG-NH2 [SEQ ID NO 109] | 8.35 nM | 4.32 nM | 6340 pM |
| H[Aib]EGS[αMeF]TSDV[αMeS]S[αMeF]LEGEAK([PEG2′-PEG2′-γGlu-Stearoyl])[αMeK]E[αMeF]IA[αMeF]VV[αMeK]GG-NH2 [SEQ ID NO 110] | 31.6 nM | 23.1 nM | 27400 pM |
| H[Aib]EGS[αMeF]TSDV[αMeS]S[αMeF]LEGEAA[αMeK]EK([PEG2′-PEG2′-γGlu-Stearoyl])IA[αMeF]VV[αMeK]GG-NH2 [SEQ ID NO 107] | 5.23 nM | 11.7 nM | 8460 pM |
| H[Aib]EGS[αMeF]TSDV[αMeS]S[αMeF]LEGEAA[αMeK]E[αMeF]IAK([PEG2′-PEG2′-γGlu-Stearoyl])VV[αMeK]GG-NH2 [SEQ ID NO 104] | 0.391 nM | 0.27 nM | 331 pM |
| H[Aib]EGS[αMeF]TSDV[αMeS]SK([PEG2′-PEG2′-γGlu-Stearoyl])LEGEAA[αMeK]E[αMeF]IA[αMeF]VV[αMeK]GG-NH2 [SEQ ID NO 116] | 1.61 nM | 0.61 nM | 1110 pM |
| H[Aib]EGS[αMeF]TSDV[αMeS]S[αMeF]LEGK([PEG2′-PEG2′-γGlu-Stearoyl])AA[αMeK]E[αMeF]IA[αMeF]VV[αMeK]GG-NH2 [SEQ ID NO 112] | 0.294 nM | 0.476 nM | 385 pM |
| H[Aib]EGS[αMeF]TSDV[αMeS]S[αMeF]LEGEAA[αMeK]E[αMeF]IA[αMeF]VV[αMeK]K([PEG2′-PEG2′-γGlu-Stearoyl])G-NH2 [SEQ ID NO 100] | 0.233 nM | 1.41 nM | 822 pM |
| H[Aib]EGS[αMeF]TSDV[αMeS]S[αMeF]K([PEG2′-PEG2′-γGlu-Stearoyl])EGEAA[αMeK]E[αMeF]IA[αMeF]VV[αMeK]GG-NH2 [SEQ ID NO 115] | 0.593 nM | 0.494 nM | 544 pM |
| H[Aib]EGS[αMeF]TSDV[αMeS]S[αMeF]LEGEAA[αMeK]E[αMeF]IA[αMeF]VV[αMeK]GK([PEG2′-PEG2′-γGlu-Stearoyl])-NH2 [SEQ ID NO 99] | 11 nM | 5.88 nM | 8440 pM |
| H[Aib]EGS[αMeF]TSDV[αMeS]S[αMeF]LEGEAA[αMeK]K([PEG2′-PEG2′-γGlu-Stearoyl])[αMeF]IA[αMeF]VV[αMeK]GG-NH2 [SEQ ID NO 108] | 0.038 nM | 0.458 nM | 248 pM |
| B3 | 0.277 nM | 0.415 nM | 346 pM |
| H[Aib]EGS[αMeF]TSDV[αMeS]S[αMeF]LEGEAA[αMeK]E[αMeF]IA[αMeF]VVK([PEG2′-PEG2′-γGlu-Stearoyl])GG-NH2 [SEQ ID NO 101] | 1.47 nM | 6.65 nM | 4060 pM |
| H[Aib]EGS[αMeF]TSDV[αMeS]S[αMeF]LEGEK([PEG2′-PEG2′-γGlu-Stearoyl])A[αMeK]E[αMeF]IA[αMeF]VV[αMeK]GG-NH2 [SEQ ID NO 111] | 0.501 nM | 1.11 nM | 806 pM |
| B4 | 0.0434 nM | 0.0586 nM | 51 pM |

From patent US20200079833A1 (AstraZeneca / MedImmune, published 2020)
